The results in this text go back to patent US8834920B2, “Liposome composition for targeting egfr receptor” (Alza Corporation, priority 2006, dated 2014).

Assay [1] relates to A431 cells. Briefly: Flow cytometry (FACS) of phage binding to A431 cells. In kind it is cell-based, human. The protocol:
(§1) To evaluate whether the selected peptides from phage display can bind to tumor cells that overexpress EGFR, A431 cells (epidermoid cancer) or an EGFR negative tumor cells, MCF-7 (breast carcinoma) were tested in a flow cytometry assay using fluorescence detection (FACS). For P145, PP146 and their control phage, 2.5×10^5 A431 cells were resuspended in 25 μl of flow staining buffer (dPBS with 1% BSA, 0.09% sodium azide) and incubated with 25 μl of phage clones for 1 hour at 4° C.
(§2) A431 cells (epidermoid cancer) which overexpress EGFR and EGFR-negative tumor cells, MCF-7 (breast carcinoma) were tested in a flow cytometry assay. Tumor cells (A431 and MCF-7) were harvested with 0.25% tyrpsin-EDTA and washed twice with FACS staining buffer (dPBS with 1% BSA, 0.09% sodium azide). […] After binding at 4° C., cells were washed twice with FACS staining buffer to remove unbound phage and then incubated with 0.5 μg of mouse anti-M13 monoclonal antibody conjugated to FITC (Fitzgerald Industries International, Inc. Concord, Mass.) for 1 hour at 4° C. Mouse anti-M13-FITC incubated with cells without phage was used as background binding. Cells were washed twice with FACS staining buffer to remove unbound detection antibody.
Background: Flow cytometry measures light scatter and fluorescence of single cells or particles in a stream.

Another assay concerns MCF-7. Briefly: Flow cytometry (FACS) of phage binding to MCF-7 cells. The format is cell-based, human. Particulars: EGFR overexpressing vs EGFR negative cells. The protocol: as §1, §2
Another assay has as its target T1, sEGFR-His6 (Homo sapiens, UniProt P00533).
T1 construct: made in house; host or cells: HEK293E (transient, secreted)
As to the kind of experiment: Phage ELISA on coated sEGFR-His6. In kind it is binding. Particulars: P190 phage, construct sEGFR-His6. On the procedure: (§3) The plates were held overnight at room temperature, washed twice with TBST (0.5M Tris Base, 9% NaCl, 0.05% tween, pH 7.6), and loaded with 200 μL per well of Starting Block (Pierce). […] The plates were held at room temperature for 1.5 hours for blocking. Plates were then washed twice with TBST and phage were added. The phage solutions were crude phage supernatant from overnight cultures diluted four-fold with Starting Block. After a one-hour incubation, the plates were washed thrice with TBST and 100 μL of a 1:5000 dilution of phage binding antibody conjugate (α-M13-HRP) was added to the wells. EGF was added if applicable. After a one-hour incubation the plates were washed five times with TBST, 100 μL of POD (BM Chemiluminescence ELISA substrate; Roche Applied Science) was added, and chemiluminescene recorded.
A general note: ELISA stands for enzyme-linked immunosorbent assay.

The target of assay [2] is T2, sEGFR-MMB (Homo sapiens, UniProt P00533).
T2 construct: made in house; host or cells: HEK 293E
As to the kind of experiment: Phage ELISA on coated sEGFR-MMB. In kind it is binding. To be noted: P190 phage, construct SEGFR-MMB. The protocol: (§4) The protein solution was removed and wells were rinsed twice with Tris-Buffered Saline containing 0.05% Tween-20 (TBS-T) using a plate washer (Embla). The wells were blocked with Starting Block in TBS for 1 hr at room temperature and rinsed twice with TBS-T. An equal volume of phage supernatant and Starting Block in TBS were incubated in the wells for 1 hr at room temperature, and the wells were rinsed five times with TBS-T. Anti-M13/horseradish peroxidase conjugate (Amersham), diluted 1:5000 in Starting Block in TBS, was added into the wells and incubated for 1 hour at room temperature, and then the wells were rinsed five times with TBS-T. Finally, chemiluminescent peroxidase substrate (Roche) was added to the wells, and chemiluminescence was measured on a Tecan plate reader.
Phage were amplified in XL-1 Blue host cells and purified by precipitation with 6% polyethylene glycol-8000/0.5 M sodium chloride. The precipitated phage were resuspended in phosphate-buffered saline in a volume that was 1/100th the original culture volume. For competitive ELISA experiments, plates were prepared by coating wells with sEGFR-MMB or the Control-MMB followed by blocking as described above. […] The binding reaction was incubated for 1 hr at room temperature, and then bound phage were detected with anti-M13/HRP as above. […] Bound phage were washed and detected with anti-M13/HRP as described above. […]

For a further assay, the target named is T3, EGF + sEGFR-MMB Complex (Homo sapiens, UniProt P00533).
T3 construct: made in house
As to the kind of experiment: Phage ELISA on complex of EGF and sEGFR-MMB. The format is binding. On the procedure:
as §3

The target in a further assay is Control-MMB (Homo sapiens, UniProt P01857). Briefly: Phage ELISA on Control-MMB. In kind it is binding. The protocol: as §4
The plates were held overnight at room temperature, washed twice with TBST (0.5M Tris Base, 9% NaCl, 0.05% tween, pH 7.6), and loaded with 200 μL per well of Starting Block (Pierce). […] The plates were held at room temperature for 1.5 hours for blocking. Plates were then washed twice with TBST and phage were added. […] After a one-hour incubation the plates were washed five times with TBST, 100 μL of POD (BM Chemiluminescence ELISA substrate; Roche Applied Science) was added, and chemiluminescene recorded.

Assay [3] has as its system A431 cells. As to the kind of experiment: FACS of P190-MMB constructs or cetuximab on A431 cells. In kind it is cell-based, human.
For assay [4], the target named is T2, sEGFR-MMB. As to the kind of experiment: P190-MMB constructs, solid phase binding (BIAcore, ELISA) to immobilized sEGFR-MMB. The text has this:
In contrast, 190-MMB as the 4316 construct, binds EGFR and the presence of excess EGF promotes its binding.
(In general: Surface plasmon resonance follows binding to a sensor surface in real time, without labels.)

For a further assay, the system named is EGFR. Briefly: FACE (Fast Activated Cell-based ELISA) of EGFR phosphorylation.

Take “TLCRSFFHPLCYA (Random peptide) [Peptide P146]”: the “binding to A431 relative to positive control phage displaying EGF” value with A431 cells [1] is on record as “weaker”.

As to VLCHRYYHPICYT [Peptide P145], the “binding to A431 compared to MCF-7” value in the assay on MCF-7 is “greater binding to A431 than MCF-7 cells”. The “binding to A431 relative to positive control phage displaying EGF” value in the assay on A431 cells [1] is given as “weaker”.

For the molecule “KTCVSTTFDLWFVCFA (Random peptide) [Peptide P176]”, the “binding to A431 relative to positive control phage displaying EGF” value in the assay with A431 cells [1] was “comparable”.

In the case of DPCTWEVWGRECLQ [Peptide P190], the “Relative Signal” value in the assay with sEGFR-His6 stood at 6; in the assay with sEGFR-MMB [2], 3937 ± 335; in the assay with EGF + sEGFR-MMB Complex (P190 phage, construct SEGFR-MMB + EGF), 29408 ± 259. Also, in the assay with MCF-7, the “binding to A431 compared to MCF-7” value is reported as “bound more effectively to A431 cells”. In addition, the “binding to dimeric EGFR in the presence of EGF or TGF-a” value with EGF + sEGFR-MMB Complex (phage ELISA) is reported as “increased”. Besides, the “binding to A431 cells in the presence of EGF” value in the assay with A431 cells [1] is “increased”. The “binding to A431 cells in the presence of EGF and cetuximab” value in the assay with A431 cells [1] is recorded as “decreases”. In addition, the “binding to A431 tumor cells” value in the assay on A431 cells [1] (anti-phage-FITC, 4° C.) is “bind”. The “binding to Control-MMB” value with Control-MMB was “fails to bind”.

As to “SGCLDALWQCVY (Random peptide) [Peptide P174]”, the “binding to A431 compared to MCF-7” value with MCF-7 is “greater to A431 than to MCF-7”. Moreover, the “binding to A431 relative to positive control phage displaying EGF” value in the assay with A431 cells [1] was “comparable”.

B1: 4315: P190-MMB construct, Flex GGGGS, n 2 (protein)
chain: GGDPCTWEVWGRECLQGGGGSGGGGSCPPCPAPEAAGGPSVFLFPPKPKDTLMISRTPEVTCVVVDVSQEDPEVQFNWYVDGVEVHNAKTKPREEQFNSTYRVVSVLTVLHQDWLNGKEYKCKVSNKGLPSSIEKTISKAKGQPREPQVYTLPPSQEEMTKNQVSLTCLVKGFYPSDIAVEWESNGQPENNYKTTPPVLDSDGSFFLYSRLTVDKSRWQEGNVFSCSVMHEALHNHYTQKSLSLSLGK
With B1, the “binding to A431” value in the assay on A431 cells [3] was “little binding”.

B2: 4316: P190-MMB construct with the longest linker, Flex GGGGS, n 4 (protein)
chain: GGDPCTWEVWGRECLQGGGGSGGGGSGGGGSGGGGSCPPCPAPEAAGGPSVFLFPPKPKDTLMISRTPEVTCVVVDVSQEDPEVQFNWYVDGVEVHNAKTKPREEQFNSTYRVVSVLTVLHQDWLNGKEYKCKVSNKGLPSSIEKTISKAKGQPREPQVYTLPPSQEEMTKNQVSLTCLVKGFYPSDIAVEWESNGQPENNYKTTPPVLDSDGSFFLYSRLTVDKSRWQEGNVFSCSVMHEALHNHYTQKSLSLSLGK
Regarding B2, the on-rate result in the assay with sEGFR-MMB [4] is reported as “much more pronounced on-rate than the other constructs”. In addition, the “binding rank among linker variants” value in the assay with sEGFR-MMB [4] (ELISA and FACS) is “best binder”. For the same molecule, the “effect of EGF on binding to A431” value with A431 cells [3] (excess rhEGF) is given as “enhanced binding”. For the same molecule, the “interference with EGF activation of EGFR” value in the assay with EGFR is listed as “nor interfere with EGF activation of EGFR”. The “EGFR phosphorylation (receptor activation)” value in the assay with EGFR (absence of EGF) was “did not induce EGFR phosphorylation”.
